Assay results as given in paper PMC10663500, “High-throughput analysis system of interaction kinetics for data-driven antibody design” (Scientific Reports, 2023).
Where a chain is given by its changes, count along the chain named.

B1: toripalimab Fab H.D31A (Fab, V domains shown)
VH: QGQLVQSGAEVKKPGASVKVSCKASGYTFTAYEMHWVRQAPIHGLEWIGVIESETGGTAYNQKFKGRVTITADKSTSTAYMELSSLRSEDTAVYYCAREGITTVATTYYWYFDVWGQGTTVTVSS
VL: DVVMTQSPLSLPVTLGQPASISCRSSQSIVHSNGNTYLEWYLQKPGQSPQLLIYKVSNRFSGVPDRFSGSGSGTDFTLKISRVEAEDVGVYYCFQGSHVPLTFGQGTKLEIK
notes: heavy chain of Sm3 with this change; numbers count from the chain's first residue; as the light chain of Sm3; source: Brevibacillus, culture supernatant (ammonium sulfate precipitate); not shown: 6xHis, C-terminal, kept; 6xHN, C-terminal, kept
B2: toripalimab Fab H.Y32A (Fab, V domains shown)
VH: B1 VH with A31D, Y32A
VL: B1 VL
notes: as for B1
B3: toripalimab Fab H.Q62A (Fab, V domains shown)
VH: B1 VH with A31D, Q62A
VL: B1 VL
notes: as for B1
B4: toripalimab Fab H.G56A (Fab, V domains shown)
VH: B1 VH with A31D, G56A
VL: B1 VL
notes: as for B1
B5: toripalimab Fab H.N61Y (Fab, V domains shown)
VH: B1 VH with A31D, N61Y
VL: B1 VL
notes: as for B1
B6: toripalimab Fab H.T55A (Fab, V domains shown)
VH: B1 VH with A31D, T55A
VL: B1 VL
notes: as for B1
B7: toripalimab Fab H.A59Y (Fab, V domains shown)
VH: B1 VH with A31D, A59Y
VL: B1 VL
notes: as for B1
B8: toripalimab Fab H.G57Y (Fab, V domains shown)
VH: B1 VH with A31D, G57Y
VL: B1 VL
notes: as for B1
B9: toripalimab Fab H.G56Y (Fab, V domains shown)
VH: B1 VH with A31D, G56Y
VL: B1 VL
notes: as for B1
B10: toripalimab Fab H.G57A (Fab, V domains shown)
VH: B1 VH with A31D, G57A
VL: B1 VL
notes: as for B1
B11: toripalimab Fab H.K63A (Fab, V domains shown)
VH: B1 VH with A31D, K63A
VL: B1 VL
notes: as for B1
B12: toripalimab Fab H.T58Y (Fab, V domains shown)
VH: B1 VH with A31D, T58Y
VL: B1 VL
notes: as for B1
B13: toripalimab Fab H.N61A (Fab, V domains shown)
VH: B1 VH with A31D, N61A
VL: B1 VL
notes: as for B1
B14: toripalimab Fab H.T58A (Fab, V domains shown)
VH: B1 VH with A31D, T58A
VL: B1 VL
notes: as for B1
B15: toripalimab Fab H.Y60A (Fab, V domains shown)
VH: B1 VH with A31D, Y60A
VL: B1 VL
notes: as for B1
B16: toripalimab Fab H.T55Y (Fab, V domains shown)
VH: B1 VH with A31D, T55Y
VL: B1 VL
notes: as for B1
B17: toripalimab Fab H.D31Y (Fab, V domains shown)
VH: B1 VH with A31Y
VL: B1 VL
notes: as for B1
B18: toripalimab Fab H.Q62Y (Fab, V domains shown)
VH: B1 VH with A31D, Q62Y
VL: B1 VL
notes: as for B1
B19: toripalimab Fab H.E54Y (Fab, V domains shown)
VH: B1 VH with A31D, E54Y
VL: B1 VL
notes: as for B1
B20: toripalimab Fab L.S97Y (Fab, V domains shown)
VH: B1 VH with A31D
VL: B1 VL with S97Y
notes: as the heavy chain of Sm3; light chain of Sm3 with this change; numbers count from the chain's first residue; source: Brevibacillus, culture supernatant (ammonium sulfate precipitate); not shown: 6xHis, C-terminal, kept; 6xHN, C-terminal, kept
B21: toripalimab Fab L.L101H (Fab, V domains shown)
VH: B1 VH with A31D
VL: B1 VL with L101H
notes: as for B20
B22: toripalimab Fab L.E39A (Fab, V domains shown)
VH: B1 VH with A31D
VL: B1 VL with E39A
notes: as for B20
B23: toripalimab Fab L.G96A (Fab, V domains shown)
VH: B1 VH with A31D
VL: B1 VL with G96A
notes: as for B20
B24: toripalimab Fab L.Q95Y (Fab, V domains shown)
VH: B1 VH with A31D
VL: B1 VL with Q95Y
notes: as for B20
B25: toripalimab Fab L.L101W (Fab, V domains shown)
VH: B1 VH with A31D
VL: B1 VL with L101W
notes: as for B20
B26: toripalimab Fab H.I51Y (Fab, V domains shown)
VH: B1 VH with A31D, I51Y
VL: B1 VL
notes: as for B1
B27: toripalimab Fab H.H35Y (Fab, V domains shown)
VH: B1 VH with A31D, H35Y
VL: B1 VL
notes: as for B1
B28: toripalimab Fab H.E52A (Fab, V domains shown)
VH: B1 VH with A31D, E52A
VL: B1 VL
notes: as for B1
B29: toripalimab Fab L.Y37A (Fab, V domains shown)
VH: B1 VH with A31D
VL: B1 VL with Y37A
notes: as for B20

Target: T1, mouse programmed cell death protein 1 Fc fusion protein (mPD-1-Fc), mPD-1 C60S (aa 25-167) (Mus musculus, UniProt Q02242, stabilised)
T1 construct: not cleaved; source: Expi293F, purified (Protein A, SEC; dimeric fraction); not shown: Fc (human), C-terminal, kept
Test: SPR; Carterra LSA; Fab from the ammonium sulfate precipitate of the culture supernatant immobilised on a NiHC200M chip; hPD-1 (1-1024 nM) or mPD-1-Fc (4-1024 nM) as analyte, fourfold dilution series, no regeneration; HBS-EP pH 7.4, 25 °C; medians over the spots of a construct, KD = koff/kon
Settings: one partner purified
Outline: (§1)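 On a Carterra LSA at 25 °C, duplicate captures of Fabs were made on a NiHC200M chip; the Fabs came from Brevibacillus culture supernatants, were precipitated with ammonium sulfate and were redissolved in HBS-EP. Fourfold series of human PD-1 (1–1024 nM) or mouse PD-1-Fc (4–1024 nM) were passed over without regeneration, with 10 min association and 5 min dissociation. Binders that were not confirmed were assigned kon 10^3 […] and koff 10^−2 s^−1. The kdka model, run with slow- or fast-dissociation settings and keeping the better fit, gave the rates, and KD was taken as koff/kon from the median values for each construct.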

In order of falling Kd:
1. B2  1310 nM
2. B9  502 nM
3. B6  411 nM
4. B7  345 nM
5. B17  291 nM
6. B12  215 nM
7. B1  204 nM
8. B18  186 nM
9. B14  169 nM
10. B4  154 nM
11. B3  153 nM
12. B5  147 nM
13. B10  125 nM
14. B8  90.3 nM
15. B15  88.2 nM
16. B19  80.3 nM
17. B11  71.3 nM
18. B16  35.8 nM
19. B13  32 nM

In order of rising koff:
1. B13  0.00141 s⁻¹
2. B16  0.00179 s⁻¹
3. B19  0.00402 s⁻¹
4. B15  0.00422 s⁻¹
5. B4  0.00466 s⁻¹
6. B11  0.00524 s⁻¹
7. B5  0.00562 s⁻¹
8. B3  0.00564 s⁻¹
9. B10  0.00625 s⁻¹
10. B18  0.00625 s⁻¹
11. B14  0.0066 s⁻¹
12. B8  0.00664 s⁻¹
13. B1  0.00913 s⁻¹
14. B12  0.0107 s⁻¹
15. B17  0.0133 s⁻¹
16. B7  0.0135 s⁻¹
17. B6  0.0151 s⁻¹
18. B9  0.0174 s⁻¹
19. B2  0.0613 s⁻¹

In order of rising kon:
1. B4  30200 M⁻¹ s⁻¹
2. B18  33600 M⁻¹ s⁻¹
3. B9  34700 M⁻¹ s⁻¹
4. B6  36800 M⁻¹ s⁻¹
5. B3  37000 M⁻¹ s⁻¹
6. B5  38100 M⁻¹ s⁻¹
7. B14  39000 M⁻¹ s⁻¹
8. B7  39200 M⁻¹ s⁻¹
9. B13  44100 M⁻¹ s⁻¹
10. B1  44700 M⁻¹ s⁻¹
11. B17  45600 M⁻¹ s⁻¹
12. B2  46900 M⁻¹ s⁻¹
13. B15  47900 M⁻¹ s⁻¹
14. B12  49600 M⁻¹ s⁻¹
15. B16  49900 M⁻¹ s⁻¹
16. B10  50100 M⁻¹ s⁻¹
17. B19  50100 M⁻¹ s⁻¹
18. B8  73500 M⁻¹ s⁻¹
19. B11  73600 M⁻¹ s⁻¹

Target: T2, human programmed cell death protein 1 (hPD-1) C93S (aa 24-167) (Homo sapiens, UniProt Q15116, C93S)
T2 construct: made as a fusion with a TEV site and human Fc; the Fc was cut off with TEV protease; source: Expi293F, purified (Protein A, TEV cleavage of Fc, SEC; monomer fractions); not shown: Fc (human), C-terminal, cleaved
T2 sequence (Q15116 24-167 C93S): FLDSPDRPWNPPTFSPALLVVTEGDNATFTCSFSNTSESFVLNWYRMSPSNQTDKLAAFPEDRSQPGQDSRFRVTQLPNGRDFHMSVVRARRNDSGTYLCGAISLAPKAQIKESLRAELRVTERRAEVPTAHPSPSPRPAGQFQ
Test: as above
Settings: one partner purified
Outline: as §1

Compared with B1, B2 is higher in Kd: under 0.861 nM for the first, 4.68 nM for the second. The first binds more tightly here.

Compared with B3, B20 is higher in Kd: under 1.29 nM for the first, 63.3 nM for the second. The first binds more tightly here.

B21 and B22 are within 1.5-fold of each other in Kd: 60.6 nM for the first, 88.4 nM for the second.

First: B23
Second: B24
The Kd of the first is 6.8-fold higher: 372 nM for the first, 55 nM for the second.

Compared with B25, B26 is 30-fold lower in Kd: 237 nM for the first, 8.01 nM for the second.

B4 and B5 cannot be ordered by Kd: under 1.46 nM for the first, under 0.156 nM for the second.

Compared with B27, B6 is 51-fold lower in Kd: 294 nM for the first, 5.76 nM for the second.

First: B7
Second: B8
The Kd of the first is 1.5-fold lower: 2.18 nM for the first, 3.35 nM for the second.

B9 and B10 cannot be ordered by Kd: under 1.7 nM for the first, 0.598 nM for the second.

Compared with B11, B12 is higher in Kd: under 0.248 nM for the first, 1.26 nM for the second.

B13 and B14 cannot be ordered by Kd: under 0.355 nM for the first, under 0.662 nM for the second.

B15 and B16 cannot be ordered by Kd: under 0.309 nM for the first, under 0.354 nM for the second.

B17 and B18 cannot be ordered by Kd: under 0.349 nM for the first, under 1.29 nM for the second.

First: B28
Second: B29
The Kd of the first is 5.9-fold lower: 40.1 nM for the first, 237 nM for the second.

B19 gave a Kd of under 0.326 nM.

Compared with B1, B2 is higher in koff: under 1e-05 s⁻¹ for the first, 7.41e-05 s⁻¹ for the second.

Going from B3 to B20, the koff rises from under 1e-05 s⁻¹ to 0.000845 s⁻¹.

Compared with B21, B22 is 5.5-fold lower in koff: 0.00111 s⁻¹ for the first, 0.000203 s⁻¹ for the second.

Going from B23 to B24, the koff falls from 0.00516 s⁻¹ to 0.000734 s⁻¹ (7-fold).

Going from B25 to B26, the koff falls from 0.0322 s⁻¹ to 0.000297 s⁻¹ (110-fold).

B4 and B5 cannot be ordered by koff: under 1e-05 s⁻¹ for the first, under 1e-05 s⁻¹ for the second.

First: B27
Second: B6
The koff of the first is 69-fold higher: 0.00276 s⁻¹ for the first, 4.01e-05 s⁻¹ for the second.

First: B7
Second: B8
The koff of the first is 2.9-fold lower: 4.81e-05 s⁻¹ for the first, 0.000138 s⁻¹ for the second.

Compared with B9, B10 is higher in koff: under 1e-05 s⁻¹ for the first, 1.47e-05 s⁻¹ for the second.

Going from B11 to B12, the koff rises from under 1e-05 s⁻¹ to 1.54e-05 s⁻¹.

B13 and B14 cannot be ordered by koff: under 1e-05 s⁻¹ for the first, under 1e-05 s⁻¹ for the second.

B15 and B16 cannot be ordered by koff: under 1e-05 s⁻¹ for the first, under 1e-05 s⁻¹ for the second.

B17 and B18 cannot be ordered by koff: under 1e-05 s⁻¹ for the first, under 1e-05 s⁻¹ for the second.

Compared with B28, B29 is 5.1-fold higher in koff: 0.000844 s⁻¹ for the first, 0.00432 s⁻¹ for the second.

B19 gave a koff of under 1e-05 s⁻¹.

In order of rising kon:
1. B22  2290 M⁻¹ s⁻¹
2. B9  5890 M⁻¹ s⁻¹
3. B4  6870 M⁻¹ s⁻¹
4. B6  6960 M⁻¹ s⁻¹
5. B3  7730 M⁻¹ s⁻¹
6. B18  7750 M⁻¹ s⁻¹
7. B27  9390 M⁻¹ s⁻¹
8. B1  11600 M⁻¹ s⁻¹
9. B12  12300 M⁻¹ s⁻¹
10. B20  13300 M⁻¹ s⁻¹
11. B24  13300 M⁻¹ s⁻¹
12. B23  13900 M⁻¹ s⁻¹
13. B14  15100 M⁻¹ s⁻¹
14. B2  15800 M⁻¹ s⁻¹
15. B29  18300 M⁻¹ s⁻¹
16. B21  18400 M⁻¹ s⁻¹
17. B28  21100 M⁻¹ s⁻¹
18. B7  22100 M⁻¹ s⁻¹
19. B10  24500 M⁻¹ s⁻¹
20. B13  28100 M⁻¹ s⁻¹
21. B16  28300 M⁻¹ s⁻¹
22. B17  28600 M⁻¹ s⁻¹
23. B19  30700 M⁻¹ s⁻¹
24. B15  32300 M⁻¹ s⁻¹
25. B26  37000 M⁻¹ s⁻¹
26. B11  40300 M⁻¹ s⁻¹
27. B8  41100 M⁻¹ s⁻¹
28. B5  64200 M⁻¹ s⁻¹
29. B25  136000 M⁻¹ s⁻¹
